Molecular target: T1, IL-15 receptor (IL-15RβγC) on 32Dβ cells (human; mouse, UniProt P14784 27-551; P34902 23-369)
T1 sequence (looked up) 1: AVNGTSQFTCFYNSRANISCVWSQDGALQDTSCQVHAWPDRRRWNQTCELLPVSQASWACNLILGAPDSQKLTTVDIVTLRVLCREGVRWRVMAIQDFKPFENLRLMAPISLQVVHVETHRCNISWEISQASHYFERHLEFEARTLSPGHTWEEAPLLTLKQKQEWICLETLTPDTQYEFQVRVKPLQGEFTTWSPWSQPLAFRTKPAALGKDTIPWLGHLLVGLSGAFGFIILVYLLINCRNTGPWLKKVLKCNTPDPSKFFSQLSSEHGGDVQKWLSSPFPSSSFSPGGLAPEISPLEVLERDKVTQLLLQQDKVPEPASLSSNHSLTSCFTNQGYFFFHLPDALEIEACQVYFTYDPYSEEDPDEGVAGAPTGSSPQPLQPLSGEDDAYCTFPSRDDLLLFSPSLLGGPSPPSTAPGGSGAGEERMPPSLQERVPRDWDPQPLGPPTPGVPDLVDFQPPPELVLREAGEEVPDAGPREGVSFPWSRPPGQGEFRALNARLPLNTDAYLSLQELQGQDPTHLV
T1 sequence (looked up) 2: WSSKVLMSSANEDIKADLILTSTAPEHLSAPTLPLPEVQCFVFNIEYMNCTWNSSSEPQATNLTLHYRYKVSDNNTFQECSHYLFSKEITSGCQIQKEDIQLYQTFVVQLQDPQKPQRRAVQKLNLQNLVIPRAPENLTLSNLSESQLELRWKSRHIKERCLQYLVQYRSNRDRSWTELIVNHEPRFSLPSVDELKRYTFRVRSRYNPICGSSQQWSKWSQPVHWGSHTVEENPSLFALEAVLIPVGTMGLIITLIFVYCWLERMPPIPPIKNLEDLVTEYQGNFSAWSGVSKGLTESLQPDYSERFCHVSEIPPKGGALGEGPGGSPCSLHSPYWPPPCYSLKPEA
Experiment: cell-based or functional assay

Binder | IL-15 dependent 32Dβ cell proliferation, EC50
IL-15N72D:IL-15RαSu/Fc complex (Alt-803) (Fc fusion) chain 1: PELLGG chain 2: PEAAGG | 0.0156 nM
in vitro assembled IL-15N72D:IL-15RαSu/Fc complex (IL-15N72D:IL-15RαSu/Fc IVA) (Fc fusion) chain 1: PELLGG chain 2: PEAAGG | 0.0158 nM
